This note sets out measurements from patent US20110229406A1 (U3 PHARMA, published 2011).

In assay [1] the target is T1, HER-3 (human, on cells) (human, UniProt P21860 20-1342).
T1 construct: whole, on cells; also called ErbB3; HER-3+ cell lines
Briefly: indirect FACS Scatchard analysis on cells.
Description: Therefore, 10⁵ cells of interest or SK-Br 3 cells were harvested with 10 mM EDTA in PBS, washed once with FACS buffer (PBS, 3% FCS, 0.4% azide) and seeded on a 96-well round bottom plate. The cells were spun for 3 min at 1000 rpm to remove supernatant and then resuspended with α-HER-3 antibody (3 μg/ml) or with antibody dilutions (100 μl/well) starting with 20 μg/ml human monoclonal antibody in FACS buffer, diluted in 1:2 dilution steps. Cell suspensions were incubated on ice for 1 hr, washed twice with FACS buffer and resuspended with secondary antibody (100 μl/well) donkey-anti-human-PE (Jackson) diluted 1:50 in FACS buffer. The cell suspensions were incubated on ice and in the dark for 30 min, washed twice with FACS buffer and analyzed (FACS, Beckman Coulter). According to the FACS Scatchard analysis, the fluorescence mean was calculated for each measurement. Background staining (=without 1st antibody) was subtracted from each fluorescence mean. Scatchard plot with x-value=fluorescence mean and y-value=fluorescence mean/concentration of mAb (nM) was generated.

The target of assay [2] is T2, rat HER-3 ECD (V5-His fusion protein) (rat, UniProt Q62799 20-643).
T2 construct: extracellular domain; not shown: V5-His tag
Briefly: ELISA, column Rat XR (XR = cross-reactive).

Assay [3] addresses T3, reduced, denatured HER-3-His tagged purified ECD protein (human, UniProt P21860 20-643).
T3 construct: extracellular domain; Same protein as m2, but reduced and denatured (disulfide bonds broken); not shown: His tag
Put plainly: dot blot of reduced, denatured HER-3-His ECD.

T2 sequence (Q62799 20-643): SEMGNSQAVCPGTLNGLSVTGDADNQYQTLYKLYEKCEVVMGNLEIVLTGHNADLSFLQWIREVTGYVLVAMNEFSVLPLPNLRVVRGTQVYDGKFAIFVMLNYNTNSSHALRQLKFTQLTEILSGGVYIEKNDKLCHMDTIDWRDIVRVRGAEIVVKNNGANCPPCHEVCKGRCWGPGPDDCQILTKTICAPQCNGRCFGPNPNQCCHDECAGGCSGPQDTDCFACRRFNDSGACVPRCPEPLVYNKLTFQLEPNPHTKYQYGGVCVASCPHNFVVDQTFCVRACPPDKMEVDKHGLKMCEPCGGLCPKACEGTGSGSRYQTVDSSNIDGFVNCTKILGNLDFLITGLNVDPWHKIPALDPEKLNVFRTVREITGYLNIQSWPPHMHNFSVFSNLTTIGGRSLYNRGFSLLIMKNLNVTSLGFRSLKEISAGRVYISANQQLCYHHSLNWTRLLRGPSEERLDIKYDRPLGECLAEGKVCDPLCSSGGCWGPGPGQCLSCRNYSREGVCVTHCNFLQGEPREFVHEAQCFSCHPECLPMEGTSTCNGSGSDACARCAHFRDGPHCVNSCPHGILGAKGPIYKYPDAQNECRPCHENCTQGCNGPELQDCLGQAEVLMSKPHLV

B1: U1-41 (antibody, V domains shown)
VH: QVQLQESGPGLVKPSQTLSLTCTVSGGSISSGGYYWSWIRQHPGKGLEWIGYIYYSGSTYYNPSLKSRVTISVDTSKNQFSLKLSSVTAADTAVYFCARDRELEGYSNYYGVDVWGQGTTVTVS
VL: DIQMTQSPSSLSASVGDRVTITCRASQAISNYLNWYQQKPGKAPKLLIYAASSLQSGVPSRFSGSGSGTDFTLTISSLQPEDFATYYCQQNNSLPITFGQGTRLEIK
On to B1, for which the Kd in assay [1] is 0.18 nM.

B2: U1-62 (antibody)
chain 1: EVQLVQSGAEVKKPGESLKISCKGSGYSFTSYWIGWVRQMPGKGLEWMGIIYPGDSDTRYSPSFQGQVTMSADKSISTAYLQLSSHEGLGHRHVLLCETDGWKLRTSRVIETSWGQGTTVTVS
chain 2: not shown
In turn, B2 gave a Kd in assay [1] of 20.4 nM.

B3: U1-55.1 (antibody, V domains shown)
VH: QVQLQESGPGLVKPSETLSLTCTVSGGSVSSGGYYWNWIRQPPGKGLEWIGYINYSGSTNYNPSLKSRVTISVDTSKNQFSLKLSSVTAADTAVYYCARDRELELYYYYYGMDVWGQGTTVTVS
VL: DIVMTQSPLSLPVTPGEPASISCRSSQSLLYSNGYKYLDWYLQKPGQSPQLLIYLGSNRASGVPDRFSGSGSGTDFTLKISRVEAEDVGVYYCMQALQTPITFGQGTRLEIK
As for B3, binding in assay [1] was put at a Kd of 3.7 nM.

B4: U1-39 (antibody, V domains shown)
VH: EVQLVESGGGLIQPGGSLRLSCAASGFTVSSNYMSWVRQAPGKGLDWVSVIYSGGSTYYADSVKGRFTISRDNSKNTLYLQMNSLRAEDTAVYYCARGQWLDVWGQGTTVTVSS
VL: DIVMTQSPLSLPVTPGEPASISCRSSQSLLHSNGYNYLDWYLQRPGQSPQLLFYLGFHRASGVPDRFSGSGSGTDFTLKISRVEAEDVGVYYCRQALQTPLTFGGGTKVEIK
Consider B4, for which the equilibrium dissociation constant (Kd) in assay [1] stood at 102 nM.

B5: U1-51 (antibody, V domains shown)
VH: QVQLQESGPGLVKPSETLSLTCTVSGGSISSYYWSWIRQPPGKGLEWIGYIYYSGSTNYNPSLKSRVTISVDTSKHQFSLKLSSVTAADTAVYYCARDSSYYDSSGYYLYYYAMDVWGQGTTVTVS
VL: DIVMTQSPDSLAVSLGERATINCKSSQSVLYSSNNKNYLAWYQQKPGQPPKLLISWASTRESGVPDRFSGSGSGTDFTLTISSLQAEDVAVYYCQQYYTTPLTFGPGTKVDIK
In assay [1], B5 gave a Kd of 132 nM.

B6: U1-43 (antibody, V domains shown)
VH: QVQLQESGPGLVKPSQTLSLTCTVSGGSISSGGYYWSWIRQHPGKGLEWIGYIYYSGSTYYNPSLRSRVTISVDTSKNQFSLKLSSVTAADTAVYYCARDREREWDDYGDPQGMDVWGQGTTVTVS
VL: DIQMTQSPSSLSASVGDRVTITCRASQSISSYLHWYQQKPGKAPKLLIHAASSLQSGVPSRFSGSGSGTDFTLTISSLQPEDFATYYCQQSYSNPLTFGGGTKVEIQ
For B6, the Kd in assay [1] was 0.57 nM.

B7: U1-44 (antibody, V domains shown)
VH: EVQLVQSGAEVKKPGESLKISCKGSGYSFTSYWIGWVRQMPGKGLEWMGIIWPGDSDTIYSPSFQGQVTISADKSISTAYLQWSSLKASDTAMYYCARHENYGDYNYWGQGTLVTVSS
VL: DIQMTQSPSSLSASVGDRVTITCRASQSIRSYLNWYQQKPGNAPKLLIYAASSLQSGVPSRFSGSGSGTDFTLTISSLQPEDFALYYCQQSISSPLTFGGGTKVEIK
For B7, the equilibrium dissociation constant (Kd) in assay [1] is 4 nM.

B8: U1-61 (antibody, V domains shown)
VH: QVQLQESGPGLVKPSQTLSLTCTVSGVSISSGGYYWSWIRQHPGMGLEWIGYIYYSGSTYYNPSLKSRVTISEDTSKNQFSLKLSSVTAADTAVYYCARDSESEYSSSSNYGMDVWGQGTTVTVS
VL: DIQMTQSPSSLSASVGDRITITCRASQTISSYLNWYQQKPGKAPKLLIYAASSLQGGVPSRFSGSVSGTDFTLTVSSLQPEDFATYYCQQSYSNPLTFGGGTKVEIK
With B8, binding in assay [1] was put at a Kd of 0.13 nM.

B9: U1-24 (antibody, V domains shown)
VH: QVQLQESGPGLVKPSQTLSLTCTVSGGSISSGDYYWSWIRQHPGKGLEWIGYIYYSGSTYYNPSLKSRVTISVDTSKNQFSLKLSSVTAADTAVYYCARADYDFWNGYFDYWGQGTLVTVSS
VL: DIQMTQSPSSLSASVGDRVTITCRASQGIRNDLGWYQQKPGKAPKRLIYAASSLQSGVPSRFSGSGSGTEFTLTISSLQPEDFATYYCLQHNNYPWTFGQGTKVEIK
Turning to B9, the Kd in assay [1] was 0.06 nM.

B10: U1-7 (antibody, V domains shown)
VH: QVQLQESGPGLVKPSQTLSLTCTVSGGSISSGDYYWSWIRQHPGKGLEWIGYIYYSGSTYYNPSLKSRVTISVDTSKNQFSLKLSSVTAADTAVYYCARADYDFWSGYFDYWGQGTLVTVSS
VL: DFQMTQSPSSLSASVGDRVTITCRASQDIRNDLGWYRQKPGKAPKRLIYAASSLQSGVPSRFSGSGSGTEFTLTISSLQPEDFATYYCLQHNSYPWTFGQGTKVEIK
In the case of B10, the Kd in assay [1] amounted to 0.02 nM.

B11: U1-47 (antibody, V domains shown)
VH: QVQLQQSGPGLVKPSQTLSLTCAISGDSVSSNSAAWNWIRQSPSRGLEWLGRTYYRSKWYNDYAVSVKSRITINPDTSKNQFSLQLNSVTPEDTAVYYCARDYYGSGSFYYYYGMDVWGQGTTVTVS
VL: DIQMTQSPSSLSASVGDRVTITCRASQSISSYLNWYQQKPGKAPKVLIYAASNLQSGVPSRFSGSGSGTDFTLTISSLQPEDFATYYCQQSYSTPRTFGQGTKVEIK
B11: the Kd in assay [1] turned out to be 9.38 nM.

B12: U1-59 (antibody, human IgG1, V domains shown)
VH: QVQLQQWGAGLLKPSETLSLTCAVYGGSFSGYYWSWIRQPPGKGLEWIGEINHSGSTNYNPSLKSRVTISVETSKNQFSLKLSSVTAADTAVYYCARDKWTWYFDLWGRGTLVTVSS
VL: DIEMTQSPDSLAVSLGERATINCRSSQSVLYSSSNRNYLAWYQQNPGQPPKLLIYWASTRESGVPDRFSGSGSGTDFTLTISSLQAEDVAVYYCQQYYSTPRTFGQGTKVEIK
notes: human IgG1 (gamma 1 constant) with human kappa constant region; also called mAb U1-59; IgG1 mAb consisting of the VH4-34 and the B3 kappa chain
For B12, in assay [2], the binding result was “binds”. Moreover, the Kd in assay [1] stood at 3.69 nM.

B13: U1-58 (antibody, V domains shown)
VH: QVQLVESGGGVVQPGRSLRLSCAASGFTFSSYGMHWVRQAPGKGLEWVAVIWYDGSNKYYADSVKGRFTISRDNSKNTLYLQMNSLRAEDTAVYYCARAARLDYYYGMDVWGQGTTVTVSS
VL: DIQMTQSPSSLSASVGDRVSITCRASQSINSYLNWFQQKPGKAPQLLIFGASGLQSGVPSRFSGSGSGTDFTLTINSLQPEDFATYYCQQSYSSPLTFGQGTRLEIK
Consider B13, for which the affinity in assay [1], expressed as Kd, was 6.4 nM.

B14: U1-53 (antibody, V domains shown)
VH: EVQLVESGGGLVQPGGSLRLSCAASGFTFSIYSMNWVRQAPGKGLEWVSYISSSSSTIYYADSVKGRFTISRDNAKNSLYLQMNSLRDEDTAVYYCARDRGDFDAFDIWGQGTMVTVSS
VL: DIQMTQSPSSLSASVGDRVTITCQASQDITNYLNWYQQKPGKAPKLLIYDASNLETGVPSRFSGSGSGTDFTFTISSLQPEDIATYNCQQCENFPITFGQGTRLEIK
notes: also called mAb U1-53
B14: the binding result in assay [2] and in assay [3] was “no binding” throughout. Besides, the affinity in assay [1], expressed as Kd, was 0.082 nM.

B15: U1-49 (antibody, human IgG1, V domains shown)
VH: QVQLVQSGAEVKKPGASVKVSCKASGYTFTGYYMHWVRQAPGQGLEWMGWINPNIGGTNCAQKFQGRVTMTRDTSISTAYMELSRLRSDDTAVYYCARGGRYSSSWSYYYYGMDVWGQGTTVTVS
VL: DILMTQTPLSLSVTPGQPASISCKSSQSLLLSDGGTYLYWYLQKPGQPPQLLIYEVSNRFSGVPDRFSGSGSGTDFTLKISRVEAEDVGVYYCMQSMQLPITFGQGTRLEIK
notes: also called human IgG1 HER-3 mAb, U1-49
As to B15, the binding result in assay [2] and in assay [3] was “no binding” in each case. The same molecule returned a Kd in assay [1] of 1 nM.
